Where “and” joins values, the source holds several entries; their conditions need not be identical. Equal entries are not always repeated. Where two headings read alike, the source gives them in different places.

This passage reports Kd, sedimentation value (percent in the pellet, equimolar mixture) and nebulin bound results from PMC3681697.

The target of assay [1] is N-terminal His-tagged recombinant nebulin encompassing modules 160–164 (human) (UniProt P20929). The assay can be described thus: ELISA. In general terms: ELISA stands for enzyme-linked immunosorbent assay.
The target is the same in assay [2]. Description: ELISA. The source holds these as a separate data set.
Assay [3] addresses headless desmin (human) (UniProt P17661). The assay can be described thus: co-sedimentation.
For assay [4], the target named is full-length wild-type desmin (human) (UniProt P17661). The assay can be described thus: co-sedimentation.
The target of assay [5] is mutant desmin E245D (human) (UniProt P17661). The assay can be described thus: co-sedimentation.
Assay [6] deals with desmin rod (human) (UniProt P17661). Description: co-sedimentation.
Assay [7] deals with tailless desmin (human) (UniProt P17661). Description: co-sedimentation.

As usually defined, the Kd is a measure of binding affinity in units of concentration. For the substance “mutant desmin T453I (from UniProt P17661 1-470) (natural protein)”, in assay [1], the Kd was 11 nM.

Turning to “mutant desmin E245D (from UniProt P17661 1-470) (natural protein)”, the Kd in assay [2] was found to be 2 nM; in assay [1] it was 8 nM.

Consider “N-terminal His-tagged recombinant nebulin encompassing modules 160–164 (from UniProt P20929 1-8525) (domain or fragment)”, for which the sedimentation value (percent in the pellet, equimolar mixture) in assay [3] turned out to be 57%; in assay [6], 70%; in assay [7], 29%. Moreover, the nebulin bound at later time points (percent of total protein) came to 35% in assay [4] and 20% in assay [5].

Regarding “mutant desmin S46Y (from UniProt P17661 1-470) (natural protein)”, the Kd in assay [1] is 19 nM.

Turning to “full-length wild-type desmin (from UniProt P17661 1-470) (natural protein)”, in assay [1], the Kd was 18 nM and 14 nM.
